B1: probe 2 (dsDNA)
DNA 1: CCCAGGTCTGCCGATTGAGTTTCCATACGTCGTATGGTACTAC
DNA 2: GTAGTACCATACGACGTATGGAAACTCAATCGGCAGACCTGGG
B2: probe 6m (dsDNA)
DNA 1: AGTCGCGAATTCCAAGCTTGTACCAGCGCCCGCGGCACTGCGG
DNA 2: CCGCAGTGCCGCGGGCGCTGGTACAAGCTTGGAATTCGCGACT
B3: probe 6 (dsDNA)
DNA 1: AGTCGCCATACGCTGTACGGTACCAGCGCCCGCGGCACTGCGG
DNA 2: CCGCAGTGCCGCGGGCGCTGGTACCGTACAGCGTATGGCGACT
B4: probe 2m (dsDNA)
DNA 1: CCCAGGTCTGCCGATTGAGTTTCGAATTCTAAGCTTGTACTAC
DNA 2: GTAGTACAAGCTTAGAATTCGAAACTCAATCGGCAGACCTGGG
B5: probe 1m (dsDNA)
DNA 1: TGAAGCGAATTCGAAGCTTGAAACGGGGCGCTGCCGTACCGGC
DNA 2: GCCGGTACGGCAGCGCCCCGTTTCAAGCTTCGAATTCGCTTCA

This series addresses T1, His6-SAV576 (TetR family regulator) (Streptomyces avermitilis ATCC31267, UniProt Q82QD4 1-218).
T1 sequence: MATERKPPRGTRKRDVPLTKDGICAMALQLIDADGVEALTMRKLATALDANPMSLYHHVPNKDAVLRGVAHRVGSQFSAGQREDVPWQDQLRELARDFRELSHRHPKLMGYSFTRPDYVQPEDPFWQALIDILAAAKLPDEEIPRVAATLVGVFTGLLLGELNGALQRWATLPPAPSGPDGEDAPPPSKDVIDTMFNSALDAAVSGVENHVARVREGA
Put plainly: EMSA; EMSA: Roche DIG Gel Shift Kit binding buffer (composition not stated), 0.3 nM probe, 1 µg poly[d(I-C)] in 20 µl, 25°C 30 min, 5% PAGE 0.5x TBE; footprinting: 400 ng DNA in 50 µl, 25°C 30 min, DNase I at 37°C. The conditions noted are these: protein: recombinant; tags: His6 (pET-28a); chain copies: 2; label: 3' DIG; blunt.
As for B1, the binding result is recorded as “binds”.

As to B2, the binding result was “no binding”. The result for B3 reads “binds”; that for B4, “no binding”. With B5, the binding result was “no binding”.

The values are drawn from publication PMC3742746, “A Novel TetR Family Transcriptional Regulator, SAV576, Negatively Controls Avermectin Biosynthesis in Streptomyces avermitilis”.
